In patent US20200299389A1 (AP BIOSCIENCES, published 2020):

Columns and labels:
[1] = biological target: recombinant PD-L1 protein (UniProt Q9NZQ7 19-238, limits assumed); assay: direct ELISA on coated recombinant PD-L1, anti-human F(ab')2-HRP detection
murine PD-L1 = biological target: T1, murine PD-L1 (murine, UniProt Q9EP73 19-238, limits assumed); assay: not described
T1 construct: also called rodent PD-L1
T1 sequence (Q9EP73 19-238 limits assumed): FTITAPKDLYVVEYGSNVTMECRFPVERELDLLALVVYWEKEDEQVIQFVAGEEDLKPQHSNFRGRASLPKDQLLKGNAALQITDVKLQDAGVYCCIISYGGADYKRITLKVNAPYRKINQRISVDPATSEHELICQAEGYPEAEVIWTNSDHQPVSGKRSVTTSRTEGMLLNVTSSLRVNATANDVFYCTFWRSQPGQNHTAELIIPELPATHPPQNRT

Sequence of recombinant PD-L1 protein (Q9NZQ7 19-238 limits assumed): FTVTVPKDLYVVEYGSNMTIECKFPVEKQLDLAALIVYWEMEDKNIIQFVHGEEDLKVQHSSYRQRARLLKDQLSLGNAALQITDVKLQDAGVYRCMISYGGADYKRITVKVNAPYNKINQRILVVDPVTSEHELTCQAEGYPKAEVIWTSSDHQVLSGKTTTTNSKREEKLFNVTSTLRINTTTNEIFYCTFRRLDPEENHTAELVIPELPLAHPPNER

B1: anti-PD-L1 antibody clone 6 (antibody, V domains shown)
VH: QVQLVQSGAEVKKPGSSVKVSCKASGGTFRRYSISWVRQAPGQGLEWMGGIIPVFGAAKYAQKFQGRVTITADEFTSTAYMELSSLTSEDTAVYYCALSGDSDAFDIWGQGTMVTVSS
VL: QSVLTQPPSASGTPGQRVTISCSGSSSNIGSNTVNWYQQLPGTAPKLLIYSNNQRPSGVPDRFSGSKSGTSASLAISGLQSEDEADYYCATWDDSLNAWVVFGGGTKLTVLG
notes: also called PD-L1-Clone 6; anti-PD-L1 clone 6 antibody
[1]
  EC50: 0.1 nM
Murine PD-L1
  binding result: no binding
